Reference: paper PMC11442470

Target: GLS1 (endogenous, both KGA and GAC) (UniProt D3Z7P3)
Experiment: IP of endogenous GLS1, blot PDZD8
Settings: reference: wild type PDZD8; sites T527

binding against the reference: weaker
Substance: PDZD8 (from UniProt Q8NEN9) T527A
